This is an account of results in US20190062438A1 (CSL, published 2019).

Changes are numbered by the printed parent chain.

A word on the Kd: it is the free concentration of one partner at which half of the binding sites on the other are occupied at equilibrium, for simple one-to-one binding. Low values mean tighter binding, high ones weaker binding.

What all share (test): SPR, kinetics, Fab over captured mutant
For orientation: In SPR one partner is held on a chip, and binding of the other changes the refractive index at the surface.

One assay deals with T1, shCD131 T419A (human, UniProt P32927 17-438).
T1 construct: C-terminal 6xHis
T1 sequence: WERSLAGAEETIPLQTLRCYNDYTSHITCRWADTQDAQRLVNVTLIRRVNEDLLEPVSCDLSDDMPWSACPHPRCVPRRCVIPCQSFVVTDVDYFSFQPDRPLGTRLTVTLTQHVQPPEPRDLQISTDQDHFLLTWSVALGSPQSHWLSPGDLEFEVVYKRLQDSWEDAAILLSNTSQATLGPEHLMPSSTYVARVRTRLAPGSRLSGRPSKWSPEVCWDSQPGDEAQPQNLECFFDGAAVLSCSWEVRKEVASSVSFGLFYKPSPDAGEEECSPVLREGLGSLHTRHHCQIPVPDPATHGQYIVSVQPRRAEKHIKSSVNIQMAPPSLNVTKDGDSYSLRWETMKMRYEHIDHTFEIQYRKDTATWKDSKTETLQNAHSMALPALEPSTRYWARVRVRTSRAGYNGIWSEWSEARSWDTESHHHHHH

Another assay addresses T2, shCD131 T106A (human, UniProt P32927 17-438).
T2 construct: C-terminal 6xHis
T2 sequence: T1 sequence with T90A, A403T

The target in a further assay is T3, shCD131 H42A (human, UniProt P32927 17-438).
T3 construct: C-terminal 6xHis
T3 sequence: T1 sequence with H26A, A403T

The target in a further assay is T4, shCD131 R418A (human, UniProt P32927 17-438).
T4 construct: C-terminal 6xHis
T4 sequence: T1 sequence with R402A, A403T

B1: 9A2 Fab (Fab, V domains shown)
VH: EVQLLESGGGLVQPGGSLRLSCAASGFTFSHYHMLWVRQAPGKGLEWVSSIRSSGGFTYYADSVKGRFTISRDNSKNTLYLQMNSLRAEDTAVYYCARFYDSFFDIWGQGTMVTVSS
VL: DIQMTQSPSSVSASVGDRVTITCRASQGISSWLAWYQQKPGKAPKLLIYAASSLQSGVPSRFSGSGSGTDFTLTISSLQPEDFATYYCQQANSFPITFGQGTRLEIKR
notes: also called recombinant Fab of 9A2
For B1, the Kd with shCD131 T419A was 53 nM; with shCD131 T106A it was 5.8 nM; with shCD131 H42A it was 41 nM; with shCD131 R418A, 70 nM.
